From the supplement of paper PMC9170038

Test system: MS2 coat protein
Assay: apparent KD of MS2 coat protein; designed switch direction (-1 OFF switch, 1 ON switch): -1; higher = weaker reporter binding
How it was run: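 Designed RNA switches with common flanks were transcribed on Illumina chips by stalled E. coli RNA polymerase and titrated with SNAP-549-labelled MS2 coat protein, from 0.7 or 1.5 nM doubling to 3 µM, in Tris-HCl pH 7.5 buffer with KCl, MgCl2, BSA, DTT, tRNA and Tween-20. Steps lasted 0.8–1.5 h (lowest) to 10–20 min (highest). Titrations ran without input, with 200 uM small-molecule ligand, or with an oligonucleotide input. Normalised cluster fluorescence was curve-fitted, and apparent KD is the per-design median over clusters.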

[1] = Eterna round: R95, input ligand: FMN 200 uM
[2] = Eterna round: R95, input ligand: microRNA oligo, concentration not stated
[3] = Eterna round: R95, input ligand: none
[4] = input ligand: microRNA oligo, concentration not stated

Sequence | apparent KD of MS2 coat protein (input ligand: FMN 200 uM) [nM] | apparent KD of MS2 coat protein (input ligand: none) [nM] | apparent KD of MS2 coat protein [1] [nM] | apparent KD of MS2 coat protein [2] [nM] | apparent KD of MS2 coat protein [3] [nM] | apparent KD of MS2 coat protein [4] [nM]
GAUUAACAUGAGGAUCACCCAUGUGAGGAUAUGAACUUGCCCACUUACCAGAUAAAGUUUAGAAGGCGCAUUCU [1986#35] (Eterna round: R97, puzzle: Exclusion 1) | 47.3 | 30.4 |  |  |  | 
GGUUGGCGAGGAUAUACAUGAGGAUCACCCAUGUGAGAGAAAGAAGUGAGGAAGAAAAGUAGAAGGUGCUGACG [salish99_ex3_r3_055] (puzzle: Exclusion 3) |  |  | 56.6 | 63.2 | 82.7 | 
AGGUUGUGAGGAUAUUAGUUAUAUGAUUGGAGGAGUAUGGCUGAGAAGGCACAUGAGGAUCACCCAUGUAGAUC [JR_Ex4_Sub048] (Eterna round: R97, puzzle: Exclusion 4) | 555 | 162 |  |  |  | 
UUUUACAUAGGAUAUAGUUUGUUGUACAUGAGGAUCACCCAUGUUUUUGUUUGUGCUUUUCUAGAAGGAUGUUUCU [JR_E5_Sub016] (puzzle: Exclusion 5) |  |  |  | 28.9 |  | 
GCAGGAUAAGUCAGGAUAUACCUAUGGAUACAUAGGUAGAAGGGACAUGAGGAUCACCCAUGUGCCUCGCCUGC [Fiskers BMX 4 - 72] (puzzle: Brourd's mod of Exclusion 4) |  |  |  | 12.4 |  | 
UAUACUAGAUAGGAUAUACUAUAUAAAUAAUUCGUAGAAGGAUCUACAUGAGGAUCACCCAUGUUAACAGCAGU [JR_E6_Sub005] (puzzle: Exclusion 6) |  |  | 30.7 | 46.6 | 46.6 | 
CCAAAGUCAGGAUAUGUGCGUUAAAAGCCGUACGUAACGACACAGAAGGGACAUGAGGAUCACCCAUGUUGGUG [Eternabot (Original) Solution 13] (Eterna round: R97, puzzle: Exclusion 4) | 96.7 | 979 |  |  |  | 
CGAUAAAAGACAGGAUAUGAGGAGAGAGAGAGAUCAGAAGGGUCACAUGAGGAUCACCCAUGUGAGUUCUCGAUAAGAAAGAGG [Prohibition 52 - Jieux - Exclusion NG 1] (Eterna round: R96, puzzle: Exclusion NG 1) | 19.3 | 21 |  |  |  | 14.6
GCCUUAUGAGUCAGGAUAUACAAUAAAAUAAUUAAGUAGAAGGGACAUGAGGAUCACCCAUGUACAUUACAUUG [alecazam28] (Eterna round: R97, puzzle: Brourd's mod of Exclusion 4) | 82.4 | 21.6 |  |  |  | 
UCAAGUAUGUAGGAUAUGAUGUGAUUUUACAUAUCAGAAGGACGUACAUGAGGAUCACCCAUGUAACUUGCAUG [Exclusion 6 - B - 12:a] (puzzle: Exclusion 6) |  |  |  | 86.9 |  | 
UACAUGAGGAUCACCCAUGUUUUGUCGUGUAUGGUAUUUAUCUAGGAUAUCAAGUUAUUUAUGUAUGAGAAGGAGAAUAUUAAU [JMF's solution 36] (Eterna round: R96, puzzle: Exclusion NG 3) | 42.5 | 35.2 |  |  |  | 26.4
UUUGUUUAGGUAGGAUAUACUUUUAAUUUCUCUUUCCUUACAUGAGGAUCACCCAUGUUUACAUUGUAGAAGGACCACUUUGUU [JR_ExcNG2_Sub052] (Eterna round: R96, puzzle: Exclusion NG 2) |  |  |  |  |  | 16.5
GUCAUCAAACAUGGGUUAAACAUGAGGAUCACCCAUGUAUACAAGUUUUUUGCUCGUCUUAUAAUAAGUUUGAUGAC [Antenna 7 - Jieux - Sensor, turn-off variant 1] (Eterna round: R97, puzzle: Sensor, turn-off variant 1) | 59.9 | 66.8 |  |  |  | 
UAGAAGGUAGGAUAUACGAAUAAAUAGGGUAGUAAUAAUACACAUGAGGAUCACCCAUGUAGAAGGACCAAGAU [Mat - Exclusion 2 - Mod of my Tesla design - D31] (puzzle: Exclusion 2) |  |  | 44.2 | 20.1 | 23 | 
CCGGAAAGGAAGGAUAUGCUAGACGAGAGUCUAGCAGAAGGUCCUACAUGAGGAUCACCCAUGUGGUCCUCCGG [Mat - Exclusion 6 - Eli Mod - D34] (Eterna round: R97, puzzle: Exclusion 6) | 252 | 1270 |  |  |  | 
AUUCGAAAGAUCCACAUGGACAUGAGGAUCACCCAUGUGCAAGCCUUUUUCUCGUCACUAUCGUCAAAAGACGAUAG [Omei Mir Offv1 A7] (Eterna round: R97, puzzle: Sensor, turn-off variant 1) | 744 | 848 |  |  |  | 
GGUUGACAUGAGGAUCACCCAUGUGAGGAUAUGCGAGAGAAAAAAGUGAGGAAGUAAUGCAGAAGGCGCUGUCG [salish99-ex1_r3_017] (puzzle: Exclusion 1) |  |  | 132 | 86.4 | 210 | 

Sequence | apparent KD of MS2 coat protein (input ligand: FMN 200 uM) [nM] | apparent KD of MS2 coat protein (input ligand: none) [nM] | apparent KD of MS2 coat protein [1] [nM] | apparent KD of MS2 coat protein [2] [nM] | apparent KD of MS2 coat protein [3] [nM] | apparent KD of MS2 coat protein [4] [nM]
GCACGACAUCAGGAUAUGACUAGCUGCGGCUAGUCAGAAGGGAUGACAUGAGGAUCACCCAUGUGAUCACGUGC [E6/2-B3] (Eterna round: R97, puzzle: Exclusion 6) | 114 | 85.3 |  |  |  | 
UUCCCACAUGAGGAUCACCCAUGUGAGGAUAUGGAGCGCGACCGCGCGGUCGCGUACACCAGAAGGCGCAUGAU [1st #80] (Eterna round: R97, puzzle: Exclusion 1) | 21 | 16.2 |  |  |  | 
AUUGAUGUUGAGGAUAUGCUUUUAUUUGUUCUUGCAGAAGGCGAUACAUGAGGAUCACCCAUGUUCAUGGAAGU [JR_E6_Sub090] (puzzle: Exclusion 6) |  |  |  | 39.7 |  | 
GUCAGCUCGUGAGGAUAUACAUGCGUGCUUCGGCACGUAUGAUAGAUCACAUGAGGAUCACCCAUGUAGAAGGCACGAGCUGAU [ENG2/4-A2] (Eterna round: R96, puzzle: Exclusion NG 2) | 21.7 | 11.8 |  |  |  | 10.4
UAUUAGCAAGCGAGAUCCCACAUGAGGAUCACCCAUGUGCUCGUCUUAUAAGGUACUGUGACGAAAGUCACGGUACC [Sensor 3, v1 - 91] (Eterna round: R96, puzzle: Sensor v3, turn-off variant 1) | 11.5 | 15.5 |  |  |  | 298
CGGUACUGAGGAUAUACAUGAGGAUCACCCAUGUGUUCCAGCUAGCGUACUGGCAUUAGUAGAAGGCGGUGCUG [JL-ex3-3.17 Brourd mod] (puzzle: Exclusion 3) |  |  | 31.4 | 12.8 | 14.3 | 
AAGAAACAUGAGGAUCACCCAUGUGAGGAUAUGUAAAAGAAAAUAAAAUAAAUAAGAAACAGAAGGCACAAAGG [Mat - Mod of Hog D19] (puzzle: Exclusion 1) |  |  | 53.2 | 39.2 | 44.8 | 
CCUAGGUUAGGAUAUCUCGAUGUGGCAAAGGGUCCAUAUCGGGAGAAGGAACAUGAGGAUCACCCAUGUGGAGC [Eternabot (Original) Solution 42] (Eterna round: R97, puzzle: Exclusion 4) | 159 | 57 |  |  |  | 
CUAUGUUAGCAGGAUAUGCCAUUAUUCCUUUACGCAGAAGGGCUUACAUGAGGAUCACCCAUGUUACAUUUCAU [JR_E6_Sub084] (puzzle: Exclusion 6) |  |  |  | 15.7 |  | 
GCAGCAUAGAUAACAGUCUGAUACAUGAGGAUCACCCAUGUACAGGAUAUGGUCUGGAUUACAGGCCAGAAGGGUACAAGCUGC [Eli exng3 - 014] (Eterna round: R96, puzzle: Exclusion NG 3) | 10.9 | 12.7 |  |  |  | 9.69
GAUCUACAUGAGGAUCACCCAUGUAAGGAUAUUGAGUACUCGAAUGGAGAGCAAGGAUCAAGAAGGUGCAAUAU [Eternabot (L1) Solution 79] (Eterna round: R97, puzzle: Exclusion 1) | 18.8 | 23.1 |  |  |  | 
UUAAUACAUGUAGGAUAUGCGUGGCGAAGCUAUGCAGAAGGACAUGAGGAUCACCCAUGUCUCUGCGUCCGCGUACGGAUGCAA [JL Eng1 1.21 mod 5] (Eterna round: R96, puzzle: Exclusion NG 1) | 13.9 | 15.8 |  |  |  | 11.6
CUAUUACGAGGAUAUGAUUUAAAUAACAUGAGGAUCACCCAUGUUUUUACGUUAUUUUAUUUAGAAGGCGUAUUGU [JR_E5_Sub028] (puzzle: Exclusion 5) |  |  | 34.1 | 53.7 | 61.5 | 
UUAUUACAAGCAAGAUCCUACAUGAGGAUCACCCAUGUGCUCGUCUUGUAAGGUACAGUGACGAAAGUCACAGUACC [Sensor 3, v1 - 000] (puzzle: Sensor v3, turn-off variant 1) |  |  | 24.7 | 302 | 24.9 | 
AUAAAACGAGGAUAUGCUGGGCUUCUGUGAUGCAUAUGCUCACAUGAGGAUCACCCAUGUAGAAGGUGUAAAAU [Laaceve] (Eterna round: R96, puzzle: Exclusion 2) | 389 | 331 |  |  |  | 221
CGUCUGUUAGGAUAUGACCCGCGUACCGUGUCGAGCCGGGUUCAGAAGGAACAUGAGGAUCACCCAUGUGAGAA [Eternabot (L1) Solution 12] (Eterna round: R97, puzzle: Exclusion 4) | 163 | 27.3 |  |  |  | 
AAGAAACAUGAGGAUCACCCAUGUGAGGAUAUGAUAAAGAAAAGAAAAGAAAGAAGAUUCAGAAGGCACAAAGG [salish99-ex1_r3_034] (puzzle: Exclusion 1) |  |  | 62.3 | 39.4 | 48.7 | 
